For experiment [1], the target named is invariant surface glycoprotein ISG65 (Trypanosoma brucei brucei (endogenous in bloodstream-form cells, MITat 1.2, Lister 427)). Put plainly: native gel or EMSA; Blue Native PAGE of bloodstream-form cell lysates, followed by western blotting; carried out as described in ref. 57. Background: Mobility shift assays separate free from complexed probe on a gel.
The target of experiment [2] is invariant surface glycoprotein ISG75 (Trypanosoma brucei brucei (endogenous in bloodstream-form cells, MITat 1.2, Lister 427)). The description is as above.

These results are taken from publication PMC4619645.

A word on the stoichiometry N: it is the number of molecules, sites or subunits per partner or assembly. Consider “invariant surface glycoprotein ISG65 (natural protein)”, for which the stoichiometry N in experiment [1] was 2.

Regarding “invariant surface glycoprotein ISG75 (natural protein)”, the stoichiometry N in experiment [2] is above 2.
